Laboratory results from the supplement of paper PMC12338614.
± gives the uncertainty stated by the source.

B1: library; numbered along this chain (parent)
chain: MEVVDPQQLGMFTEGELMSVGMDTFIHRIDSTEVIYQPRRKRAKLIGKYLMGDLLGEGSYGKVKEVLDSETLCRRAVKILKKKKLRRIPNGEANVKKEIQLLRRLRHKNVIQLVDVLYNEEKQKMYMVMEYCVCGMQEMLDSVPEKRFPVCQAHGYFCQLIDGLEYLHSQGIVHKDIKPGNLLLTTGGTLKISDLGVAEALHPFAADDTCRTSQGSPAFQPPEIANGLDTFSGFKVDIWSAGVTLYNITTGLYPFEGDNIYKLFENIGKGSYAIPGDCGPPLSDLLKGMLEYEPAKRFSIRQIRQHSWFRKKHPPAEAPVPIPPSPDTKDRWRSMTVVPYLEDLHGADEDEDLFDIEDDIIYTQDFTVPGQVPEEEASHNGQRRGLPKAVCMNGTEAAQLSTKSRAEGRAPNPARKACSASSKIRRLSACKQQ

Variants of: B1
Experiment: STK11 functional score (HeLa growth suppression), rescaled enrichment; synonymous median = 1, nonsense median = 0 (normalised score)
Conditions: with HeLa; variant type: missense
Method in brief: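 The values are functional scores: wild-type-corrected log ratios of post- versus pre-selection abundance, rescaled to synonymous and nonsense medians, merged over codons and replicate transfections, and carrying bootstrapped error. They derive from codon-randomised (POPCode), codon-optimised STK11 libraries that Bxb1 integrated at an AAVS1 landing pad in HeLa, with three transfections for each of three regions. Sequencing of tiled gDNA amplicons ran on NextSeq, at ~2 million reads per tile.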

First: L67W
Second: E407R
The STK11 functional score of the first is lower: 0.675 ± 0.08 for the first, 1.52 ± 0.15 for the second.

First: E407Q
Second: L290D
The STK11 functional score of the first is higher: 0.809 ± 0.34 for the first, -0.275 ± 0.15 for the second.

First: Q100Y
Second: A273V
The STK11 functional score of the first is lower: 0.248 ± 0.19 for the first, 0.694 ± 0.13 for the second.

P373E and P373W are within error of each other in STK11 functional score: 1.51 ± 0.31 for the first, 1.6 ± 0.2 for the second.

First: P373D
Second: S240R
The STK11 functional score of the first is higher: 1.58 ± 0.32 for the first, 0.823 ± 0.1 for the second.

Going from M136E to M129S, the STK11 functional score rises from 0.000415 ± 0.084 to 0.731 ± 0.16.

Compared with M129I, L9W is higher in STK11 functional score: 0.692 ± 0.11 for the first, 1.49 ± 0.16 for the second.

Going from L164N to L353C, the STK11 functional score rises from 0.0402 ± 0.26 to 1.17 ± 0.72.

Going from L353S to I172R, the STK11 functional score falls from 1.6 ± 0.14 to 0.401 ± 0.096.

Compared with G268M, V320A is higher in STK11 functional score: 0.465 ± 0.33 for the first, 1.55 ± 0.2 for the second.

F234V and S271V are within error of each other in STK11 functional score: 1.2 ± 0.36 for the first, 0.986 ± 0.14 for the second.

F219K and F219R are within error of each other in STK11 functional score: -0.214 ± 0.31 for the first, 0.1 ± 0.098 for the second.

First: K62T
Second: R103G
The STK11 functional score of the first is higher: 1.7 ± 0.36 for the first, 0.667 ± 0.098 for the second.

First: P387K
Second: S216I
The STK11 functional score of the first is higher: 1 ± 0.31 for the first, 0.119 ± 0.093 for the second.

G187T and Y118H are within error of each other in STK11 functional score: 1.59 ± 0.4 for the first, 1.14 ± 0.64 for the second.

G346I and P319R are within error of each other in STK11 functional score: 1.18 ± 0.33 for the first, 1.53 ± 0.26 for the second.

N380E and R39A are within error of each other in STK11 functional score: 1.48 ± 0.33 for the first, 1.12 ± 0.42 for the second.

R39I and G52C are within error of each other in STK11 functional score: 1.12 ± 0.38 for the first, 1.49 ± 0.16 for the second.

P294E and K296M are within error of each other in STK11 functional score: 1.3 ± 0.3 for the first, 1.32 ± 0.89 for the second.

G394V and E317N are within error of each other in STK11 functional score: 1.29 ± 0.18 for the first, 1.6 ± 0.3 for the second.

Going from E317W to L245E, the STK11 functional score falls from 1.62 ± 0.16 to -0.0467 ± 0.26.

Going from G15C to G15T, the STK11 functional score rises from 1.15 ± 0.21 to 1.68 ± 0.17.

Going from A206R to Q364D, the STK11 functional score falls from 1.64 ± 0.13 to 0.845 ± 0.44.

Compared with N247P, S232E is higher in STK11 functional score: -0.0537 ± 0.096 for the first, 1.36 ± 0.33 for the second.

Going from S232K to E342D, the STK11 functional score falls from 1.67 ± 0.14 to 0.774 ± 0.55.

V116I and V116G are within error of each other in STK11 functional score: 0.327 ± 0.24 for the first, 0.415 ± 0.092 for the second.

G135R and G135K are within error of each other in STK11 functional score: 1.38 ± 0.38 for the first, 1.63 ± 0.18 for the second.

Compared with L102Y, L102S is lower in STK11 functional score: 1.2 ± 0.37 for the first, 0.447 ± 0.3 for the second.

L102M and T212P are within error of each other in STK11 functional score: 0.857 ± 0.19 for the first, 0.926 ± 0.38 for the second.

First: T244C
Second: T244P
The STK11 functional score of the first is higher: 1.32 ± 0.29 for the first, -0.17 ± 0.1 for the second.

P89V and N90A are within error of each other in STK11 functional score: 0.683 ± 0.088 for the first, 1.14 ± 0.72 for the second.

G163V and G242K are within error of each other in STK11 functional score: 0.0343 ± 0.1 for the first, 0.078 ± 0.73 for the second.

Going from H168M to Y36D, the STK11 functional score rises from 0.519 ± 0.14 to 1.27 ± 0.22.

Compared with H154N, L282D is higher in STK11 functional score: 0.196 ± 0.14 for the first, 1.26 ± 0.5 for the second.

First: T402V
Second: I161W
The STK11 functional score of the first is higher: 0.686 ± 0.18 for the first, -0.296 ± 0.057 for the second.

Compared with T186H, L386Q is higher in STK11 functional score: 0.54 ± 0.59 for the first, 1.37 ± 0.15 for the second.

Compared with L386C, L182S is lower in STK11 functional score: 1.31 ± 0.42 for the first, 0.561 ± 0.14 for the second.

P38S and P38T are within error of each other in STK11 functional score: 1.06 ± 0.12 for the first, 0.9 ± 0.23 for the second.

Compared with E293A, L286E is lower in STK11 functional score: 1.03 ± 0.15 for the first, 0.235 ± 0.36 for the second.

Compared with L286N, L286F is higher in STK11 functional score: 0.195 ± 0.1 for the first, 0.971 ± 0.3 for the second.

S378T and G91N are within error of each other in STK11 functional score: 1.4 ± 0.26 for the first, 1.38 ± 0.089 for the second.

Compared with D194G, K416S is higher in STK11 functional score: -0.36 ± 0.095 for the first, 1.55 ± 0.2 for the second.

Going from K82V to A420L, the STK11 functional score rises from 0.966 ± 0.26 to 1.61 ± 0.16.

A420V and N412I are within error of each other in STK11 functional score: 1.52 ± 0.21 for the first, 1.21 ± 0.43 for the second.

N412L and G370E are within error of each other in STK11 functional score: 1.62 ± 0.21 for the first, 1.43 ± 0.25 for the second.

First: V66D
Second: V66T
The STK11 functional score of the first is lower: 0.0679 ± 0.17 for the first, 1.12 ± 0.32 for the second.

V66Y and V66H are within error of each other in STK11 functional score: 1.12 ± 0.38 for the first, 1.37 ± 0.19 for the second.

Compared with V133L, V133E is lower in STK11 functional score: 0.982 ± 0.085 for the first, 0.588 ± 0.28 for the second.

P275R and K124G are within error of each other in STK11 functional score: 1.12 ± 0.28 for the first, 1.04 ± 0.36 for the second.

K124A and L341F are within error of each other in STK11 functional score: 1.13 ± 0.59 for the first, 0.562 ± 0.13 for the second.

Compared with L341N, L50P is lower in STK11 functional score: 1.52 ± 0.19 for the first, 0.95 ± 0.22 for the second.

H313Q and T249M are within error of each other in STK11 functional score: 0.889 ± 0.49 for the first, 1.47 ± 0.2 for the second.

P321N and N259W are within error of each other in STK11 functional score: 1.03 ± 0.51 for the first, 0.92 ± 0.36 for the second.

D237N and K122S are within error of each other in STK11 functional score: 1.36 ± 0.7 for the first, 1.65 ± 0.4 for the second.

First: I192W
Second: I192N
The STK11 functional score of the first is lower: 0.0777 ± 0.23 for the first, 1.23 ± 0.67 for the second.

Going from D352Y to G381R, the STK11 functional score rises from 0.953 ± 0.14 to 1.48 ± 0.16.

First: G381M
Second: S19L
The STK11 functional score of the first is higher: 1.57 ± 0.29 for the first, 0.775 ± 0.094 for the second.

Going from G279C to G279I, the STK11 functional score rises from 0.657 ± 0.1 to 1.41 ± 0.4.

T395L and T395I are within error of each other in STK11 functional score: 1.23 ± 0.19 for the first, 0.971 ± 0.23 for the second.

L105P and P281K are within error of each other in STK11 functional score: 0.588 ± 0.23 for the first, 1.26 ± 0.79 for the second.

K423I and D53S are within error of each other in STK11 functional score: 1.25 ± 0.18 for the first, 1.51 ± 0.24 for the second.

Going from E65C to E65V, the STK11 functional score falls from 1.07 ± 0.12 to 0.734 ± 0.15.

E65H and P222C are within error of each other in STK11 functional score: 1.36 ± 0.21 for the first, 0.773 ± 0.62 for the second.

D162V and D162A are within error of each other in STK11 functional score: 1.17 ± 0.11 for the first, 0.819 ± 0.49 for the second.

First: A389V
Second: A93V
The STK11 functional score of the first is higher: 0.744 ± 0.54 for the first, 0.101 ± 0.08 for the second.

L17Q and V95N are within error of each other in STK11 functional score: 1.71 ± 0.4 for the first, 1.6 ± 0.14 for the second.

Compared with P6I, D330Q is lower in STK11 functional score: 1.61 ± 0.19 for the first, 0.163 ± 0.59 for the second.

D330A and I224F are within error of each other in STK11 functional score: 1.18 ± 0.4 for the first, 1.09 ± 0.23 for the second.

I224P and I224M are within error of each other in STK11 functional score: 0.889 ± 0.11 for the first, 1.11 ± 0.48 for the second.

K96G and E92L are within error of each other in STK11 functional score: 1.31 ± 0.19 for the first, 1.01 ± 0.15 for the second.

K269P and K269Q are within error of each other in STK11 functional score: 1.26 ± 0.41 for the first, 1.5 ± 0.53 for the second.

C158R and D365L are within error of each other in STK11 functional score: 1.49 ± 0.35 for the first, 1.27 ± 0.14 for the second.

Going from D365V to V197M, the STK11 functional score falls from 1.14 ± 0.41 to -0.102 ± 0.17.

First: V197L
Second: T71D
The STK11 functional score of the first is lower: 1.05 ± 0.21 for the first, 1.46 ± 0.096 for the second.

T71W and Q399T are within error of each other in STK11 functional score: 1.13 ± 0.14 for the first, 1.29 ± 0.25 for the second.

Going from S193T to Q137D, the STK11 functional score falls from 1.22 ± 0.22 to 0.482 ± 0.11.

Q137L and C151A are within error of each other in STK11 functional score: 1.27 ± 0.084 for the first, 1.4 ± 0.25 for the second.

L80Y and A200W are within error of each other in STK11 functional score: 1.13 ± 0.23 for the first, 0.861 ± 0.091 for the second.

E98Q and E98Y are within error of each other in STK11 functional score: 0.273 ± 0.089 for the first, 0.182 ± 0.18 for the second.

Compared with E98G, E376Y is higher in STK11 functional score: 0.397 ± 0.099 for the first, 1.56 ± 0.19 for the second.

Going from E376T to I424F, the STK11 functional score falls from 1.55 ± 0.26 to 1.04 ± 0.086.

First: G56T
Second: G56S
The STK11 functional score of the first is lower: 0.231 ± 0.097 for the first, 0.788 ± 0.12 for the second.

D327L and D327T are within error of each other in STK11 functional score: 1.55 ± 0.21 for the first, 1.6 ± 0.19 for the second.

Y49Q showed an STK11 functional score of 0.0367 ± 0.35.
